Here are results for 16 molecules from patent publication US20170260272A1 (Novartis, published 2017).

Test [1] concerns the target T1, APP-Avi-soluble human LOX-1(61-273) (human, UniProt P78380 61-273). The test can be described thus: competition ELISA: oxLDL binding to plate-bound biotinylated human sLOX-1. The method, then:
NeutrAvidin 384 well plates were coated with 2.5 μg/ml biotinylated LOX-1 diluted in PBS. After blocking with 25% Block Ace (AbD Serotec, Cat#BUF029) in PBS, purified Fabs or IgGs diluted in PBS/1% BSA were added. Subsequently OxLDL (copper-sulfate oxidized LDL, Kalen Biomedical #770202) or MDA-LDL (Academy Biomedical, #20P-UMD-L102) ligand diluted in PBS/1% BSA were allowed to bind to coated LOX-1. Secondary antibody (HRP conjugated sheep anti ApoB IgG; The Binding Site) diluted 1:1,000 in PBS/1% BSA was added followed by addition of TMB substrate (Thermo Scientific). After 10 minutes 1M H2SO4 was added and absorbance was determined at 450 nm. During early screenings, Fab fragments were also tested in this oxLDL binding assay using Fab-containing crude E. coli lysates.
The ability of LOX-1 antibodies to inhibit oxLDL binding to LOX-1 protein was determined using the method described in Example 4. In addition to “high binding OxLDL” from Kalen Biomedical (catalog number 770212-7), which is generated by copper sulfate mediated oxidation of LDL, two other forms of modified LDL were tested in this assay: malondialdehyde modified LDL (Academy Bio-Medical Co. catalog number 20P-MD-L105) and hypochlorite modified LDL. Hypochlorite modified LDL was prepared according to the following procedure. Human LDL (Kalen Biomedical catalog number 770200-4) was diluted with PBS to a final concentration of 0.25 mg/mL. Sodium hypochlorite (NaOCI, JT Baker catalog number 9416-01) was then added to 0.1 mM final concentration. The solution was incubated at room temperate for 4 hours, then quenched by adding L-methionine to a final concentration of reaction by adding 5 μl of 100 mM Mehionine per 200 μl total volume.
A general note: In an ELISA, binding on a coated surface is turned into a signal by an enzyme label.

The target of test [2] is T1, APP-Avi-soluble human LOX-1(61-273). The test can be described thus: SET, IgG vs soluble human LOX-1. The protocol:
Affinity determination for anti-LOX-1 IgGs using Solution Equilibrium Titration (SET) was basically performed as described in the literature (Friguet et al., 1985 J Immunol Methods 77: 305-319). The assays were performed in a 96-well polypropylene plate (Thermo Scientific, Catalog no. AB-1127) using a constant concentration of LOX-1 antibody mixed with different concentrations of non-biotinylated human or cynomolgus monkey LOX-1 protein and incubated at 22° C. for 14 hours with constant shaking (300 rpm).
On a pre-blocked MSD plate (Meso Scale Discovery, catalog no. L21SA) biotinylated human or cynomolgus monkey soluble LOX-1 protein was immobilized and washed afterwards. The equilibrium binding reactions were then applied to the MSD plate with immobilized LOX-1 and incubated for 30 min. The unbound material was removed by washing the plate, and the captured antibody was detected by adding Sulfo-tagged goat anti-human IgG (Meso Scale Discovery, catalog no. R3AJ-1). After incubation and washing 1×MSD read buffer T(Meso Scale Discovery, catalog no. R92TC-2) was added and the plate was developed using a Sector Imager 6000 (Meso Scale Discovery). The data were transferred to Excel for analysis and plotted using GraphPad Prism v5. The KD values were determined by fitting the data to the following equation: […]

The IC50 is the concentration needed to halve the response being measured. A higher IC50 goes with lower potency.

B1: MOR020151 (antibody, human IgG1, lambda, L234A L235A, V domains shown)
VH: QVQLVESGGGLVKPGGSLRLSCAASGFTFSSYALSWVRQAPGKGLEWVGRIKSKTMGGTSDYAAPVKGRFTISRDDSKNTLYLQMNSLKTEDTAVYYCARDFWADHYYYFDYWGQGTLVTVSS
VL: DIALTQPASVSGSPGQSITISCTGTSSDVGYINYVNWYQQHPGKAPKLMIYEVSNRPSGVSNRFSGSKSGNTASLTISGLQAEDEADYYCASWDWYDNVVFGGGTKLTVLG
notes: also called MOR20151
Molecule B1 gave a half-maximal inhibitory concentration (IC50) in test [1] of 7 nM. Besides, the Kd in test [2] came to 0.27 nM.

B2: MOR020052 (antibody, human IgG1, lambda, L234A L235A, V domains shown)
VH: QVQLVQSGAEVKKPGSSVKVSCKASGGTFSDYAISWVRQAPGQGLEWMGGIIPGFGQANYAQKFQGRVTITADESTSTAYMELSSLRSEDTAVYYCAREPSPLYGPYSDYVMDPWGQGTLVTVSS
VL: DIALTQPASVSGSPGQSITISCTGTSSDVGYFNFVSWYQQHPGKAPKLMIYDVSNRPSGVSNRFSGSKSGNTASLTISGLQAEDEADYYCASYGWDSSWVFGGGTKLTVLG
notes: also called MOR20052
In the case of B2, the IC50 in test [1] came to 12 nM. The molecule also registered a Kd in test [2] of 0.5 nM.

B3: MOR021448 (antibody, V domains shown)
VH: QVQLVQSGAEVKKPGSSVKVSCKASGGTFSDYAISWVRQAPGQGLEWMGRVIRPYYGWTEYAQKFQGRVTITADESTSTAYMELSSLRSEDTAVYYCAREPSPLYGPYSDYVMDPWGQGTLVTVSS
VL: DIALTQPASVSGSPGQSITISCTGTSSDVGYFNFVSWYQQHPGKAPKLMIYDVSNRPSGVSNRFSGSKSGNTASLTISGLQAEDEADYYCASYGWDSSWVFGGGTKLTVLG
notes: IgG (human IgG1f LALA); parent MOR20052 with the printed HCDR2 stretch exchanged
With B3, the Kd in test [2] turned out to be 0.0003 nM.

B4: MOR021449 (antibody, V domains shown)
VH: QVQLVQSGAEVKKPGSSVKVSCKASGGTFSDYAISWVRQAPGQGLEWMGGIQPGFAGAWYAQKFQGRVTITADESTSTAYMELSSLRSEDTAVYYCAREPSPLYGPYSDYVMDPWGQGTLVTVSS
VL: DIALTQPASVSGSPGQSITISCTGTSSDVGYFNFVSWYQQHPGKAPKLMIYDVSNRPSGVSNRFSGSKSGNTASLTISGLQAEDEADYYCASYGWDSSWVFGGGTKLTVLG
notes: as for B3
B4 had a Kd in test [2] of 0.0003 nM.

B5: MOR020144 (antibody, human IgG1, lambda, L234A L235A, V domains shown)
VH: QVQLLESGGGLVQPGGSLRLSCAASGFTFSDYALHWVRQAPGKGLEWVSVISYSGGYTYYADSVKGRFTISRDNSKNTLYLQMNSLRAEDTAVYYCARSPGLTSYHDSWGQGTLVTVSS
VL: DIVLTQPPSVSGAPGQRVTISCSGSSSNIGSNYVSWYQQLPGTAPKLLIHSNSHRPSGVPDRFSGSKSGTSASLAITGLQAEDEADYYCQSWDYESERVVFGGGTKLTVLG
notes: also called MOR20144
B5 gave a 50% inhibitory concentration (IC50) in test [1] of 5 nM. Also, the Kd in test [2] stood at 0.0002 nM.

B6: MOR020133 (antibody, human IgG1, lambda, L234A L235A, V domains shown)
VH: QVQLVQSGAEVKKPGESLKISCKGSGYSFTNYWIAWVRQMPGKGLEWMGRIFPGDSTTTYSPSFQGQVTISADKSISTAYLQWSSLKASDTAMYYCARGKRGATHPTQYEGWEVYGFDPWGQGTLVTVSS
VL: DIELTQPPSVSVSPGQTASITCSGDALGGKYASWYQQKPGQAPVLVIYDDNKRPSGIPERFSGSNSGNTATLTISGTQAEDEADYYCQSWAFYSGVFGGGTKLTVLG
notes: also called MOR20133
As for B6, in test [1], the 50% inhibitory concentration (IC50) came to 6 nM. Besides, the Kd in test [2] turned out to be 0.144 nM.

B7: MOR021443 (antibody, V domains shown)
VH: QVQLVQSGAEVKKPGESLKISCKGSGYSFTNYWIAWVRQMPGKGLEWMGRIFPGKSETSYSPSFQGQVTISADKSISTAYLQWSSLKASDTAMYYCARGKRGATHPTQYEGWEVYGFDPWGQGTLVTVSS
VL: DIELTQPPSVSVSPGQTASITCSGDALGGKYASWYQQKPGQAPVLVIYDDNKRPSGIPERFSGSNSGNTATLTISGTQAEDEADYYCQSWAFYSGVFGGGTKLTVLG
notes: IgG (human IgG1f LALA); parent MOR20133 with the printed HCDR2 stretch exchanged
Take B7: the Kd in test [2] amounted to 0.075 nM.

B8: MOR021445 (antibody, V domains shown)
VH: QVQLVQSGAEVKKPGESLKISCKGSGYSFTNYWIAWVRQMPGKGLEWMGAIRPEWSETKYSPSFQGQVTISADKSISTAYLQWSSLKASDTAMYYCARGKRGATHPTQYEGWEVYGFDPWGQGTLVTVSS
VL: DIELTQPPSVSVSPGQTASITCSGDALGGKYASWYQQKPGQAPVLVIYDDNKRPSGIPERFSGSNSGNTATLTISGTQAEDEADYYCQSWAFYSGVFGGGTKLTVLG
notes: as for B7
In the case of B8, the Kd in test [2] is 0.03 nM.

B9: MOR021444 (antibody, V domains shown)
VH: QVQLVQSGAEVKKPGESLKISCKGSGYSFTNYWIAWVRQMPGKGLEWMGRIEPLSSTTEYSPSFQGQVTISADKSISTAYLQWSSLKASDTAMYYCARGKRGATHPTQYEGWEVYGFDPWGQGTLVTVSS
VL: DIELTQPPSVSVSPGQTASITCSGDALGGKYASWYQQKPGQAPVLVIYDDNKRPSGIPERFSGSNSGNTATLTISGTQAEDEADYYCQSWAFYSGVFGGGTKLTVLG
notes: as for B7
The molecule B9 came in with a Kd in test [2] of 0.035 nM.

B10: MOR020159 (antibody, human IgG1, kappa, L234A L235A, V domains shown)
VH: QVQLVQSGAEVKKPGSSVKVSCKASGGTFSDYAISWVRQAPGQGLEWMGGIVPIVGTANYAQKFQGRVTITADESTSTAYMELSSLRSEDTAVYYCARDSSTSYYYYFDYWGQGTLVTVSS
VL: DIQMTQSPSSLSASVGDRVTITCRASQDINSWLAWYQQKPGKAPKLLIYQASNLQSGVPSRFSGSGSGTDFTLTISSLQPEDFATYYCQQIDHTPFTFGQGTKVEIKR
notes: also called MOR20159
The molecule B10 gave a half-maximal inhibitory concentration (IC50) in test [1] of 5 nM. The molecule further gave a Kd in test [2] of 0.56 nM.

B11: MOR021442 (antibody, V domains shown)
VH: QVQLVQSGAEVKKPGSSVKVSCKASGGTFSDYAISWVRQAPGQGLEWMGGIVPIVGTANYAQKFQGRVTITADESTSTAYMELSSLRSEDTAVYYCARDSSTSYYYYFDYWGQGTLVTVSS
VL: DIQMTQSPSSLSASVGDRVTITCRASQDINSWLAWYQQKPGKAPKLLIYQASNLQSGVPSRFSGSGSGTDFTLTISSLQPEDFATYYCQQMHRLPVTFGQGTKVEIKR
notes: IgG (human IgG1f LALA); parent MOR20159 with the printed LCDR3 stretch exchanged
B11 yielded a Kd in test [2] of 0.004 nM.

B12: MOR021441 (antibody, V domains shown)
VH: QVQLVQSGAEVKKPGSSVKVSCKASGGTFSDYAISWVRQAPGQGLEWMGGIVPIVGTANYAQKFQGRVTITADESTSTAYMELSSLRSEDTAVYYCARDSSTSYYYYFDYWGQGTLVTVSS
VL: DIQMTQSPSSLSASVGDRVTITCRASQDINSWLAWYQQKPGKAPKLLIYQASNLQSGVPSRFSGSGSGTDFTLTISSLQPEDFATYYCQQMKTFPITFGQGTKVEIKR
notes: as for B11
Turning to B12, in test [2], the Kd came to 0.003 nM.

B13: MOR020148 (antibody, human IgG1, lambda, L234A L235A, V domains shown)
VH: QVQLLESGGGLVQSGGSLRLSCAASGFTFRSGAAMHWVRQAPGKGLEWVSGISSFSSSTDYADSVKGRFTISRDNSKNTLYLQMNSLRAEDTAVYYCARNFKYAMDYWGQGTLVTVSS
VL: DIALTQPASVSGSPGQSITISCTGTSSDVGSINYVSWYQQHPGKAPKMIYAVSYRPSGVSNRFSGSKSGNTASLTISGLQAEDEADYYCQVWDWRSDSRVFGGGTKLTVLG
notes: also called MOR20148
In test [1], B13 registered an IC50 of 9 nM. The molecule further showed a Kd in test [2] of 6.5 nM.

B14: MOR021553 (antibody, V domains shown)
VH: QVQLLESGGGLVQSGGSLRLSCAASGFTFRSGAAMHWVRQAPGKGLEWVSSIEYFGSATLYADSVKGRFTISRDNSKNTLYLQMNSLRAEDTAVYYCARNFKYAMDYWGQGTLVTVSS
VL: DIALTQPASVSGSPGQSITISCTGTSSDVGSINYVSWYQQHPGKAPKMIYAVSYRPSGVSNRFSGSKSGNTASLTISGLQAEDEADYYCQVWDWRSDSRVFGGGTKLTVLG
notes: IgG (human IgG1f LALA); parent MOR20148 with the printed HCDR2 stretch exchanged
Regarding B14, the Kd in test [2] was 0.006 nM.

B15: MOR021451 (antibody, V domains shown)
VH: QVQLVQSGAEVKKPGSSVKVSCKASGGTFSSYAISWVRQAPGQGLEWMGRIVPGFVYTSYAQKFQGRVTITADESTSTAYMELSSLRSEDTAVYYCARDPLYRSDYYYHWFDFWGQGTLVTVSS
VL: DIALTQPASVSGSPGQSITISCTGTSSDVGNFNYVSWYQQHPGKAPKLMIYGVNNRPSGVSNRFSGSKSGNTASLTISGLQAEDEADYYCAAYGWALDEVVFGGGTKLTVLG
notes: IgG (human IgG1f LALA); parent MOR20152 with the printed HCDR2 stretch exchanged
As for B15, the Kd in test [2] was 0.0001 nM.

B16: MOR021455 (antibody, V domains shown)
VH: QVQLVQSGAEVKKPGSSVKVSCKASGGTFSSYAISWVRQAPGQGLEWMGRIIPQWAGTPEYAQKFQGRVTITADESTSTAYMELSSLRSEDTAVYYCARDPLYRSDYYYHWFDFWGQGTLVTVSS
VL: DIALTQPASVSGSPGQSITISCTGTSSDVGNFNYVSWYQQHPGKAPKLMIYGVNNRPSGVSNRFSGSKSGNTASLTISGLQAEDEADYYCAAYGWALDEVVFGGGTKLTVLG
notes: as for B15
As for B16, the Kd in test [2] worked out at 0.0003 nM.
